In US20080085280A1:

What was measured:
[1] = target: wild-type human FcαRI (human) (UniProt P24071); test: cell-based or functional assay
[2] = target: FcαRIR209L/γ chimeric receptor (human) (UniProt P24071); test: cell-based or functional assay

Fab concentration giving maximal inhibition of degranulation [1]: 1 to 10 µg/mL
inhibition of FcεRI-induced degranulation, 10 µg/ml Fab [1]: > 50%
inhibition of IgE-mediated degranulation (β-hexosaminidase release), 10 µg/ml Fab [1]: 74%
inhibition of IgE-mediated degranulation against irrelevant control Fab [1]: 72%
inhibition of IgG-mediated phagocytosis of E. coli by human blood monocytes [1]: > 80%
inhibition of IgE-mediated degranulation against irrelevant control Fab [2]: 91%
Substance: anti-FcαRI Fab A77 (Fab fragment of anti-FcαRI mAb, IgG1κ, clone A77)
